Laboratory results taken from patent US20250353912A1 (published 2025).
Substitutions are numbered along the chain they refer to. Where no end group is shown, it is not given here. [ ]: non-standard residue; d: D form.

T1: KRAS(G12C) residues 4-18 peptide conjugated to AMG-510
T1 peptide: YKLVVVGAC(AMG‑510)GVGKSA[dPEG4]K(long chain biotin)-NH2

B1: IBA1-13 (antibody, V domains shown)
VH: EVQLVESGGGLVQPGGSLRLSCAASGFTLSSSSIHWVRQAPGKGLEWVASIYSSYGYTYYADSVKGRFTISADTSKNTAYLQMNSLRAEDTAVYYCARYYYYWYGGMDYWGQGTLVTVSS
VL: DIQMTQSPSSLSASVGDRVTITCRASQSVSSAVAWYQQKPGKAPKLLIYSASSLYSGVPSRFSGSRSGTDFTLTISSLQPEDFATYYCQQGHDMNPVTFGQGTKVEIKR
B2: AMRA3-7D_CrossMab (bispecific antibody)
chain: EVQLLESGGGLVQPGGSLRLSCAASGFTFSTYAMNWVRQAPGKGLEWVSRIRSKYNNYATYYADSVKGRFTISRDDSKNTLYLQMNSLRAEDTAVYYCVRHGNFGNSYVSWFAYWGQGTLVTVSSASVAAPSVFIFPPSDEQLKSGTASVVCLLNNFYPREAKVQWKVDNALQSGNSQESVTEQDSKDSTYSLSSTLTLSKADYEKHKVYACEVTHQGLSSPVTKSFNRGEC
heavy 1: not shown
heavy 2: EVQLVESGGGLVQPGGSLRLSCAASGFTFSDYSIHWVRQAPGKGLEWVASISSSSGSTSYADSVKGRFTISADTSKNTAYLQMNSLRAEDTAVYYCARGGWYPAMDYWGQGTLVTVSSASTKGPSVFPLAPSSKSTSGGTAALGCLVEDYFPEPVTVSWNSGALTSGVHTFPAVLQSSGLYSLSSVVTVPSSSLGTQTYICNVNHKPSNTKVDEKVEPKSCDKTHTCPPCPAPEAAGGPSVFLFPPKPKDTLMISRTPEVTCVVVDVSHEDPEVKFNWYVDGVEVHNAKTKPREEQYNSTYRVVSVLTVLHQDWLNGKEYKCKVSNKALGAPIEKTISKAKGQPREPQVCTLPPSRDELTKNQVSLSCAVKGFYPSDIAVEWESNGQPENNYKTTPPVLDSDGSFFLVSKLTVDKSRWQQGNVFSCSVMHEALHNHYTQKSLSLSP
light: DIQMTQSPSSLSASVGDRVTITCRASQSVSSAVAWYQQKPGKAPKLLIYSASSLYSGVPSRFSGSRSGTDFTLTISSLQPEDFATYYCQQISYVKKLITFGQGTKVEIKRTVAAPSVFIFPPSDRKLKSGTASVVCLLNNFYPREAKVQWKVDNALQSGNSQESVTEQDSKDSTYSLSSTLTLSKADYEKHKVYACEVTHQGLSSPVTKSFNRGEC
B3: IBA1-8 (antibody, V domains shown)
VH: EVQLVESGGGLVQPGGSLRLSCAASGFTISYSSIHWVRQAPGKGLEWVASIYPSYGSTSYADSVKGRFTISADTSKNTAYLQMNSLRAEDTAVYYCARWQGYYQPALDYWGQGTLVTVSS
VL: DIQMTQSPSSLSASVGDRVTITCRASQSVSSAVAWYQQKPGKAPKLLIYSASSLYSGVPSRFSGSRSGTDFTLTISSLQPEDFATYYCQQPYYPLITFGQGTKVEIKR
B4: AMRA311-17 hIgG1 (antibody, V domains shown)
VH: EVQLVESGGGLVQPGGSLRLSCAASGFTISSSSIHWVRQAPGKGLEWVASISSYSGSTYYADSVKGRFTISADTSKNTAYLQMNSLRAEDTAVYYCARYPYGSHVYTGLDYWGQGTLVTVSS
VL: B3 VL with P91S, Y92S, Y93S, P94S
B5: AMRA311-16 hIgG1 (antibody, V domains shown)
VH: EVQLVESGGGLVQPGGSLRLSCAASGFTISSSSIHWVRQAPGKGLEWVAYISSYSGYTYYADSVKGRFTISADTSKNTAYLQMNSLRAEDTAVYYCARYWYGHYHSYFGLDYWGQGTLVTVSS
VL: B3 VL with P91S, Y92S, Y93S, P94S
B6: IBA1-21 (antibody, V domains shown)
VH: EVQLVESGGGLVQPGGSLRLSCAASGFTISSSSIHWVRQAPGKGLEWVASISSYYGYTSYADSVKGRFTISADTSKNTAYLQMNSLRAEDTAVYYCARYYSYSSGYGYYDYFDWGAMDYWGQGTLVTVSS
VL: DIQMTQSPSSLSASVGDRVTITCRASQSVSSAVAWYQQKPGKAPKLLIYSASSLYSGVPSRFSGSRSGTDFTLTISSLQPEDFATYYCQQMQYSGWLITFGQGTKVEIKR
B7: IBA1-4 (antibody, V domains shown)
VH: EVQLVESGGGLVQPGGSLRLSCAASGFTVSSSSIHWVRQAPGKGLEWVASIYSYSGSTYYADSVKGRFTISADTSKNTAYLQMNSLRAEDTAVYYCARQYSSSYYVWPGMDYWGQGTLVTVSS
VL: B6 VL with M91Y, Q92H, S94W, G95A, W96S
B8: IBA1-7 (antibody, V domains shown)
VH: EVQLVESGGGLVQPGGSLRLSCAASGFTLSSSSIHWVRQAPGKGLEWVASISSYYGSTSYADSVKGRFTISADTSKNTAYLQMNSLRAEDTAVYYCARMHYSWQEYYSYDWGMDYWGQGTLVTVSS
VL: B6 VL with M91S, Q92Y, Y93W, S94W, G95K, W96S, I98V
B9: AMRA311-18 hIgG1 (antibody, V domains shown)
VH: EVQLVESGGGLVQPGGSLRLSCAASGFTISSSSIHWVRQAPGKGLEWVASIYSSSGSTSYADSVKGRFTISADTSKNTAYLQMNSLRAEDTAVYYCARVYSSRYWGWGVAFDYWGQGTLVTVSS
VL: B6 VL with M91W, Q92N, Y93W, S94A, G95D, W96Y, I98V
B10: IBA1-19 (antibody, V domains shown)
VH: EVQLVESGGGLVQPGGSLRLSCAASGFTFSYSSIHWVRQAPGKGLEWVASIYPSSGYTSYADSVKGRFTISADTSKNTAYLQMNSLRAEDTAVYYCARGWWYWMAWDYAMDYWGQGTLVTVSS
VL: B6 VL with M91S, Q92W, Y93M, G95D, W96S
B11: P2AMR-1 in the human IgG1 format (antibody, V domains shown)
VH: QVQLVQSEPEVKKPGSSVKLSCKASGGTFSTDAITWVRQAPGQGLEYMGGIIPLLDSVDYAQRFQGRVTVSADKSTGTAYMEVRSLGSEDTAKYYCAKWSSVDTGLDYWGQGTLVTVSS
VL: QSVLIQPRSVSGSPGQSVTISCTGTSSDVGGYNYVSWYQQHPGKAPKLMIYDVSKRPSGVPDRFSGSKSGNTASLTVSGLQAEDEADYYCGSYADTDTIVFGTGTKLTVL

Columns and labels:
[1] = molecular target: HLA-A*01:01 in complex with the BTK peptide … conjugated with Ibrutinib (human;, ibrutinib covalently bound to Cys); assay: multiplex bead-binding assay
CD3 on Jurkat cells = CD3 on Jurkat cells (UniProt P07766 23-207); assay: cell binding, flow cytometry
RAS-AMG510 = assay: cell binding, flow cytometry (peptide-pulsed Raji cells); apparent KD
[2] = molecular target: T1, KRAS(G12C) residues 4-18 peptide …; assay: bead binding assay; apparent KD

Row | Binder | Kd [1] [nM] | further results
1 | B1 | 0.137 | 
2 | B2 |  | Kd (CD3 on Jurkat cells): 200 nM
3 | B3 | 62 | 
4 | B4 |  | Kd (RAS-AMG510): 180 nM
5 | B5 |  | Kd (RAS-AMG510): 71 nM
6 | B6 | 0.04 | 
7 | B7 | 0.65 | 
8 | B8 | 170 | 
9 | B9 |  | Kd (RAS-AMG510): 52 nM
10 | B10 | 0.52 | 
11 | B11 |  | Kd [2]: 0.2 nM
